Experimental data as given in the supplement of paper PMC9170038.

System: MS2 coat protein
Experiment: apparent KD of MS2 coat protein; designed switch direction (-1 OFF switch, 1 ON switch): -1; higher = weaker reporter binding
Outline: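 The reported apparent KD is a per-design median over clusters, from curve fits of normalised cluster fluorescence. Protein titrations used SNAP-549-labelled MS2 coat protein, doubled from 0.7 or 1.5 nM to 3 µM, in Tris-HCl pH 7.5 buffer with KCl, MgCl2, BSA, DTT, tRNA and Tween-20, with no input, 200 uM small-molecule ligand, or an oligonucleotide input. The RNA switches were transcribed on Illumina chips by stalled E. coli RNA polymerase.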

[1] = Eterna round: R95, input ligand: microRNA oligo, concentration not stated
[2] = input ligand: microRNA oligo, concentration not stated
[3] = Eterna round: R95, input ligand: FMN 200 uM
[4] = Eterna round: R95, input ligand: none

Sequence: UUUUAACAUGAGGAUCACCCAUGUGAGGAUAUCGAAAUUUAUAUUAAUAUUAAUUUAACGAGAAGGCACAUUUU [JMF 31] (puzzle: Exclusion 1)
- apparent KD of MS2 coat protein [1]: 88.5 nM

Sequence: UUUUAACAUGAGGAUCACCCAUGUGAGGAUAUCGAAAUUUAUAUUAAUAUUAUUUUUUCGAGAAGGCACAUUUU [JMF 49] (puzzle: Exclusion 1)
- apparent KD of MS2 coat protein [1]: 148 nM

Sequence: UUUUAACAUGAGGAUCACCCAUGUGAGGAUAUCGAAAUUUAUAUUAAUAUUUUUAAAUCGAGAAGGCACAUUUU [JMF 68] (puzzle: Exclusion 1)
- apparent KD of MS2 coat protein [1]: 98.9 nM

Sequence: UUUUACUCAGGAUAUACAUGAGGAUCACCCAUGUAUAUUGAAGAUAAUACAUGGGAAUGUAGAAGGGAGCUCAU [Omei Ex3 Pseudoloop 18] (Eterna round: R97, puzzle: Exclusion 3)
- apparent KD of MS2 coat protein (input ligand: FMN 200 uM): 190 nM
- apparent KD of MS2 coat protein (input ligand: none): 179 nM

Sequence: UUUUCGUCAGGAUAUUCUACUUAUUACAUGAGGAUCACCCAUGUGUAUGUACAAGGGUGUGAAGAAGGGACUUUUU [LRO-Excl5-10-mod A17d by Omei] (Eterna round: R97, puzzle: Exclusion 5)
- apparent KD of MS2 coat protein (input ligand: FMN 200 uM): 305 nM
- apparent KD of MS2 coat protein (input ligand: none): 1070 nM

Sequence: UUUUCUUUUGUGAGGAUAUACUUGUUUUUUUUUUUGUAGAAGGCACAUGAGGAUCACCCAUGUUUUCUUUUCUG [JR_BME4_Sub026] (puzzle: Brourd's mod of Exclusion 4)
- apparent KD of MS2 coat protein [1]: 20.6 nM

Sequence: UUUUGGCAAGCGAGAUCCUACAUGAGGAUCACCCAUGUUGACCAUGGUUUCCAUGGUCAUUUUGCUCGUCUUGUGUG [jl TITIN mod 2] (Eterna round: R97, puzzle: Sensor, turn-off variant 1)
- apparent KD of MS2 coat protein (input ligand: FMN 200 uM): 31.8 nM
- apparent KD of MS2 coat protein (input ligand: none): 32.3 nM

Sequence: UUUUGUCGUGACAUGGGUGACAUGAGGAUCACCCAUGUUACAAGCUUGUUGCUCGUCUUAUAAUUAACCCAUGUCAU [LRO Sensor-off var1-18 mod of Stov1-13-A1 by Brourd] (Eterna round: R97, puzzle: Sensor, turn-off variant 1)
- apparent KD of MS2 coat protein (input ligand: FMN 200 uM): 44.7 nM
- apparent KD of MS2 coat protein (input ligand: none): 49.1 nM

Sequence: UUUUUAGAUGAAGGAUAUACUUAACAUGAGGAUCACCCAUGUGGUGUUGUGAGUGAGUGAGUUUAGUAGAAGGUCAAUGAUUUU [JMF's solution 66] (Eterna round: R96, puzzle: Exclusion NG 2)
- apparent KD of MS2 coat protein (input ligand: FMN 200 uM): 937 nM
- apparent KD of MS2 coat protein [2]: 246 nM
- apparent KD of MS2 coat protein (input ligand: none): 377 nM

Sequence: UUUUUAGUGCUUUUUAAGUACAUGAGGAUCACCCAUGUACUUGUCUGGUGGUCCGGACAAGCUUUUUGCUCGUCUAA [Sensor v3 - turn-off variant 1 - 1] (puzzle: Sensor v3, turn-off variant 1)
- apparent KD of MS2 coat protein [3]: 48.9 nM
- apparent KD of MS2 coat protein [1]: 33 nM
- apparent KD of MS2 coat protein [4]: 59.7 nM

Sequence: UUUUUAUAACAAGGAUAUACUAAACAUGAGGAUCACCCAUGUAAUAUUAUGAGUGAGAGAGAGAAGUAGAAGGUGUAUUAUUUU [JMF solution 2] (Eterna round: R96, puzzle: Exclusion NG 2)
- apparent KD of MS2 coat protein [2]: 82.4 nM

Sequence: UUUUUAUAUGAAGGAUAUACUUAACAUGAGGAUCACCCAUGUGGUGUUGUGAGUGAGUGAGUUUAGUAGAAGGUCAAGUAUUCU [JMF's solution 40] (Eterna round: R96, puzzle: Exclusion NG 2)
- apparent KD of MS2 coat protein (input ligand: FMN 200 uM): 575 nM
- apparent KD of MS2 coat protein [2]: 306 nM
- apparent KD of MS2 coat protein (input ligand: none): 496 nM

Sequence: UUUUUAUAUGAAGGAUAUACUUAACAUGAGGAUCACCCAUGUGGUGUUGUGAGUGAGUGAGUUUAGUAGAAGGUCAAGUAUUUA [JMF's solution 41] (Eterna round: R96, puzzle: Exclusion NG 2)
- apparent KD of MS2 coat protein (input ligand: FMN 200 uM): 663 nM
- apparent KD of MS2 coat protein [2]: 527 nM
- apparent KD of MS2 coat protein (input ligand: none): 380 nM

Sequence: UUUUUAUAUGAAGGAUAUACUUAACAUGAGGAUCACCCAUGUGGUGUUGUGAGUGAGUGAGUUUAGUAGAAGGUCAAUUAGUAU [JMF's solution 101] (Eterna round: R96, puzzle: Exclusion NG 2)
- apparent KD of MS2 coat protein (input ligand: FMN 200 uM): 1110 nM
- apparent KD of MS2 coat protein [2]: 253 nM
- apparent KD of MS2 coat protein (input ligand: none): 295 nM

Sequence: UUUUUAUAUGAAGGAUAUACUUAACAUGAGGAUCACCCAUGUGGUGUUGUGAGUGAGUGAGUUUAGUAGAAGGUCAAUUAUUUU [JMF's solution 6] (Eterna round: R96, puzzle: Exclusion NG 2)
- apparent KD of MS2 coat protein (input ligand: FMN 200 uM): 915 nM
- apparent KD of MS2 coat protein [2]: 246 nM
- apparent KD of MS2 coat protein (input ligand: none): 261 nM

Sequence: UUUUUCAAGCCAGAUCCUCACAUGAGGAUCACCCAUGUGCUCGUCUGUUUUCGCACUAUCACGUUUGUGAUAGUGCU [Level Boss var2-11] (puzzle: Sensor v3, turn-off variant 1)
- apparent KD of MS2 coat protein [3]: 297 nM
- apparent KD of MS2 coat protein [1]: 17.7 nM
- apparent KD of MS2 coat protein [4]: 307 nM

Sequence: UUUUUGGUAGGAUAUACAUGAGGAUCACCCAUGUCCCACCCGUUACCUAUGACCAUAUGUAGAAGGACCAUUUC [Exy#11] (Eterna round: R97, puzzle: Exclusion 3)
- apparent KD of MS2 coat protein (input ligand: FMN 200 uM): 24.6 nM
- apparent KD of MS2 coat protein (input ligand: none): 21.3 nM

Sequence: UUUUUGUAUGAAGGAUAUACUUAACAUGAGGAUCACCCAUGUGGUGUUGUGAGUGAGUGAGUUUAGUAGAAGGUCAAUUCUUUU [JMF's solution 88] (Eterna round: R96, puzzle: Exclusion NG 2)
- apparent KD of MS2 coat protein (input ligand: FMN 200 uM): 604 nM
- apparent KD of MS2 coat protein [2]: 275 nM
- apparent KD of MS2 coat protein (input ligand: none): 454 nM

Sequence: UUUUUGUGAGGAUAUCAGUAGUAAAUAAAUAAAAUUACUACUGAGAAGGCACAUGAGGAUCACCCAUGUUCCUU [salish99_ex3_r3_090] (puzzle: Exclusion 4)
- apparent KD of MS2 coat protein [1]: 14 nM

Sequence: UUUUUGUGAGGAUAUCAGUAGUAGAACAAUAGUACUACUACUGAGAAGGCACAUGAGGAUCACCCAUGUUCUUC [Fiskers Ex 4 Super stable 44 mod 11] (puzzle: Exclusion 4)
- apparent KD of MS2 coat protein [1]: 27.1 nM

Sequence: UUUUUUGUUGUGAGGAUAUCGUAUUUUUUUUGUUACGAGAAGGCACAUGAGGAUCACCCAUGUUUUUUGAUGUU [JR_BMOE4_Sub065] (puzzle: Brourd's mod of Exclusion 4)
- apparent KD of MS2 coat protein [1]: 28.4 nM
